# Measured values: publication PMC4538381, “Activation of Relaxin Family Receptor 1 from Different Mammalian Species by Relaxin Peptide and Small-Molecule Agonist ML290” (Frontiers in Endocrinology, 2015)
# “Also recorded” adds a separate entry of the source.
# Experiments:
# hRXFP1 = assay: Direct HTRF cAMP assay, hRXFP1; assay type: cell-based, human; conditions: conditioned media from SQ10-transfected HEK293T cells, % of 10 μM Forskolin
# Description: (§1) HEK293T cell transient transfections were performed using Lipofectamine 2000 transfection reagent (Life Technologies, Grand Island, NY, USA) according to the manufacturer’s instructions. Cells transiently expressing the RXFP1 receptors were used within 48 h of transfection. Each construct was tested at least three times. For cell-conditioned media stimulation, HEK293T cells were transfected with the rabbit RLN construct (SQ10) or an empty pCR3.1 vector, and cells were cultured for 24 h. The media was used to stimulate HEK293T cells transfected with the RXFP1 receptors.
# (§2) Direct measurement of cAMP production was performed using the HTRF cAMP HiRange kit (CisBio, Bedford, MA, USA). HEK293T cells transiently transfected with different RXFP1 receptors were stimulated with various concentrations of RLN peptides or ML290 for 60 min at 37°C, 5% CO2, after which, two HTRF detection reagents (diluted according to assay kit directions in HTRF lysis buffer) were added. The plates were incubated for 60 min at room temperature, and the signal was read on a FLUOstar Omega (BMG Labtech, Cary, NC, USA) plate reader. cAMP levels were calculated according to the manufacturer’s instructions against a standard curve. Statistical processing of the data was performed using GraphPad Prism software.
# G-RXFP1 = assay: Direct HTRF cAMP assay, guinea pig G-RXFP1; assay type: cell-based, guinea pig (Cavia porcellus); conditions: conditioned media from SQ10-transfected HEK293T cells, % of 10 μM Forskolin
# Description: The human, mouse, macaque, and pig RXFP1 cDNA constructs in baculovirus BacMam mammalian expression vector (Invitrogen, Carlsbad, CA, USA) were synthesized at the Eukaryotic Expression Group-Protein Expression laboratory (NCI, Frederick, MD, USA). The PCR primers for RT-PCR were designed to cover the full-length sequence of the open reading frame (ORF). PCR amplifications were performed with PfuUltra High-Fidelity DNA polymerase (Agilent Technologies, Santa Clara, CA, USA). Guinea pig RXFP1 (G-RXFP1) was amplified from guinea pig ovarian cDNA (Zyagen, San Diego, CA, USA). Rabbit RXFP1 (R1-RXFP1 and R2-RXFP1) cDNAs were amplified from rabbit uterus cDNA (Zyagen). All cloning was performed using the In-Fusion® HD Cloning Kit (Clontech Laboratories, Mountain View, CA, USA). Rabbit and guinea pig RXFP1s were cloned into pCR3.1 mammalian expression vector (Invitrogen). […]
# Direct measurement of cAMP production was performed using the HTRF cAMP HiRange kit (CisBio, Bedford, MA, USA). […] The plates were incubated for 60 min at room temperature, and the signal was read on a FLUOstar Omega (BMG Labtech, Cary, NC, USA) plate reader. cAMP levels were calculated according to the manufacturer’s instructions against a standard curve. […]
# R1-RXFP1 and R2-RXFP1 = assay: Direct HTRF cAMP assay, rabbit R1-RXFP1 and R2-RXFP1; assay type: cell-based, European rabbit (Oryctolagus cuniculus); conditions: HTRF
# Description: The human, mouse, macaque, and pig RXFP1 cDNA constructs in baculovirus BacMam mammalian expression vector (Invitrogen, Carlsbad, CA, USA) were synthesized at the Eukaryotic Expression Group-Protein Expression laboratory (NCI, Frederick, MD, USA). The PCR primers for RT-PCR were designed to cover the full-length sequence of the open reading frame (ORF). PCR amplifications were performed with PfuUltra High-Fidelity DNA polymerase (Agilent Technologies, Santa Clara, CA, USA). Guinea pig RXFP1 (G-RXFP1) was amplified from guinea pig ovarian cDNA (Zyagen, San Diego, CA, USA). Rabbit RXFP1 (R1-RXFP1 and R2-RXFP1) cDNAs were amplified from rabbit uterus cDNA (Zyagen). All cloning was performed using the In-Fusion® HD Cloning Kit (Clontech Laboratories, Mountain View, CA, USA). Rabbit and guinea pig RXFP1s were cloned into pCR3.1 mammalian expression vector (Invitrogen). In order to study RXFP1 surface expression, rabbit cDNAs were cloned into pcDNA3.1™/Zeo+ mammalian expression vector (Invitrogen), which contained an N-terminal FLAG-tag and a bovine prolactin signal sequence (3). […] To make chimeric clones, the human, guinea pig, and rabbit plasmid were used as templates to produce PCR amplicons, which were then used for overlapping PCR and subsequent cloning with the In-Fusion kit. The chimeric guinea pig/human GH-RXFP1 construct contains guinea pig RXFP1 cDNA (G-RXFP1, 1–1499 bp) encoding the ectodomain, TM1, TM2, and part of TM3 (amino acids 1–499 of G-RXFP1), and human RXFP1 (hRXFP1, 1509–2274 bp) encoding TM3 to the C-terminal tail of the receptor (amino acids 503–757 of hRXFP1) (Figure 1A). The recombinant chimeric human–rabbit HR-RXFP1 was made with the 5′-part of the hRXFP1 sequence (1–972 bp, LDLa-LRR9, 1–324 aa), with the remainder being the rabbit RXFP1 sequence (973–2277 bp, LRR9-C-terminal tail, 325–759 aa) (Figure 1A). The recombinant chimeric rabbit–human R1H-RXFP1 or R2H-RXFP1 contains the N-terminal rabbit RXFP1 sequence (1–972 bp for R1-RXFP1 or 975 bp for R2-RXFP1), with the remaining sequence being hRXFP1 (973–2274) (Figure 1A). R1- and R2-RXFP1 denote two variants of rabbit RXFP1 cDNA. All numbers correspond to the full-length cDNAs with the first nucleotide of the ORF.
# as §1, §2
molecule,measurement,setting,value
"SQ10: rabbit RLN expressed from SQ10 cDNA in HEK293T cells, used as conditioned medium (protein) RVTYEWMMENVKICRNDFVRTAIEVCGHVHLERESPSPENPFLSSGPAAETVPSSIKKDAENANTMLESIPNLPQELTATLFEKQPSKLYLQYLPTLKKSNVSFEEFKKIIQNIQRGVQGSSASESNTFSRKKRQFSESLPEECCKYGCPRYYLLMYC",cAMP response to SQ10 conditioned medium,hRXFP1,responded to SQ10 treatment with cAMP production; also recorded: activated human and guinea pig receptors and thus was fully functional
same,cAMP response to SQ10 conditioned medium,G-RXFP1,responded to SQ10 treatment with cAMP production; also recorded: activated human and guinea pig receptors and thus was fully functional
same,cAMP response to SQ10 conditioned medium,"R1-RXFP1 and R2-RXFP1; R1- or R2-RXFP1, conditioned media from SQ10-transfected HEK293T cells, % of 10 μM Forskolin",No response was recorded; also recorded: Neither of the two rabbit RXFP1 variants responded
same,statistical significance of response versus hRXFP1 or G-RXFP1,"R1-RXFP1 and R2-RXFP1; R1-RXFP1, SQ10 conditioned media",statistically significant (p < 0.0001) compared to hRXFP1 or G-RXFP1
